{"source": "patent US9623039B2", "about": "“Treatment and prevention of pathological conditions using iduna related techniques and compositions” (VALTED, LLC, priority 2010, dated 2017)", "molecules": {"B1": {"name": "Iduna: novel NMDA-induced cell survival protein, PAR-dependent E3 ligase; 359 amino acids (protein)", "chain": "MEMAGCGEIDHSINMLPTNKKANESCSNTAPSLTVPECAICLQTCVHPVSLPCKHVFCYLCVKGASWLGKRCALCRQEIPEDFLDKPTLLSPEELKAASRGNGEYAWYYEGRNGWWQYDERTSRELEDAFSKGKKNTEMLIAGFLYVADLENMVQYRRNEHGRRRKIKRDIIDIPKKGVAGLRLDCDTNTVNLARESSADGADSGSAQTGASVQLAVPSSTRPLTSVDGQLTSPVTPSPDAGISLEDSFAHLQLSGDSIAERSHRGEGEEDHESPSSGRVPDTSVEETESDASSDSEDAPVVVAQHSLTQQRPLVPNGNQTVADQSDRSGTDRSVAGGGTMSVNVRSRRPDGQCTVIEV"}}, "key": {"[1]": {"tested_on": "PAR polymer", "test": "EMSA for PAR binding", "description": "PAR binding is specified by a sequence of approximately 20 amino acids containing N-terminal basic amino acids and a C-terminal region containing alternating hydrophobic and basic amino acids (FIG. 24). Iduna contains a predicted PAR polymer binding sequence within amino acids 144-167 of the WWE domain (FIGS. 1 and 24). The PAR-binding domain was defined by comparing to the consensus sequence for PAR-binding and the known PAR binding domain of Histone 3 (FIG. 24). HEK293 cells were transfected with GFP, GFP-Iduna lacking the WWE domain (GFP-IdunaΔWWE), GFP-Iduna lacking the RF domain (GFP-IdunaARF), and full-length GFP-Iduna, followed by immunoprecipitation with a GFP antibody. […] Only GFP-Iduna-ARF and full-length GFP-Iduna can co-immunoprecipiate PAR binding proteins (FIG. 25). The critical amino acids in the PAR binding domain, 156Y and 157R, were mutated to 156A and 157A in full length Iduna (Iduna-YRAA). […] Similar results are obtained with a biotin-tagged PAR polymer followed by detection with an anti-biotin antibody (FIG. 26). […] Histone H3 is a known PAR binding protein and was used as a positive control for the PAR overlay assay. […] An assay based on electrophorectic mobility shift (EMSA) for PAR binding was developed to monitor PAR polymer binding to Iduna. […]"}, "[2]": {"tested_on": "primary cortical neurons", "test": "Mitochondrial membrane potential (TMRM live imaging)", "assay_type": "cell-based, mouse", "conditions": "TMRM fluorescence, NMDA 500 μM", "procedure": "Mitochondrial Membrane Potential (Δψm): TMRM was used to determine Δψm. Mouse neuronal cultures were loaded with TMRM (100 nM) for 20 min. Thereafter, live-cell imaging was captured using LSM 510 Live Confocal microscope (Carl Zeiss, Germany) for 20 minutes and fluorescence values for TMRM were calculated using LSM 510 confocal software (Carl Zeiss). Following 50-100 seconds base-line stabilization, NMDA (500 μM for 5 min) was directly perfused during image acquisition on the confocal microscopic stage using a peristaltic pump (Gilson). Live images were acquired at an interval of 20 s using a low laser power to avoid excessive bleaching. Due to spectral overlap with GFP, plasma membrane potential could not be determined."}, "[3]": {"tested_on": "MCF7 cells", "test": "Alkaline comet assay after γ-irradiation", "assay_type": "cell-based, human", "conditions": "γ-irradiation 2 Gy, 15 min", "procedure": "Comet assay. Single cell gel electrophoresis assay was performed by following the manufacturer's instructions. Briefly, established stable cell lines were irradiated (2 Gy) with a Gammacell irradiator and then further incubated for 15 min at 37° C. Cells were collected at 500×g at 4° C. and rinsed twice with ice cold PBS (Ca++ and Mg++ free). A total of 5×10^5 cells were counted and resuspended into PBS (Ca++ and Mg++ free) and then combined with LMAgarose (low melting agarose) at a ratio 1:10 (v/v). Each sample was spotted into CometSlide™ and lysed with buffer (supplied with CometAssay Kit, Trevigen) for 1 h at 4° C. After draining the excess lysis buffer, slides were immersed with alkaline unwinding solution (200 mM NaOH, pH>13, 1 mM EDTA) for 1 h at RT. To the single cell electrophoresis, each comet slide was placed in electrophoresis slide tray with 1 L of alkaline unwinding solution and applied to 21 Volts for 30 min for electrophoresis. After draining the excess electrophoresis buffer, slides were rinsed twice with dH2O and then fixed with 70% ethanol for 5 min. To facilitate single cell observation, slides were dried at 40° C. and stained with SYBR Green I (supplied with CometAssay Kit) for 5 min at 4° C. […] Fifty cells per slide were monitored and the DNA damage was calculated using comet tail length and head diameter parameters."}, "[4]": {"tested_on": "cortical neurons", "test": "Calcium imaging and mitochondrial Ca2+ uptake", "assay_type": "cell-based, mouse", "procedure": "Calcium Imaging: Neuronal cells were plated on 17 mm glass cover slips, pre-coated with poly-L-ornithine (0.1 mg/ml). On DIV 14, the cultures were loaded with calcium sensitive dye Fluo-5f (2.5 μM, dissolved in pleuronic acid/DMSO solution) for 45 min at 37° C. and thereafter placed on a thermostatically confocal microscopic stage (Carl Zeiss). HEPES balanced salt solution (HBSS: NaCl 137 mM, KCl 5 mM, HEPES 20 mM, glucose 10 mM, CaCl2 1.4 mM, NaHCO3 3 mM, Na2HPO4 0.6 mM, KH2PO4 0.4 mM, pH 7.4) was superfused to the cultures for 100 s to obtain a steady base-line. NMDA (500 μM for 5 min) was used to induce intracellular calcium influx. Florescence values were monitored at every 10 s and calculated using LSM 510 Meta software and represent the changes in cellular calcium.\nMeasurements of Mitochondrial Ca^2+-uptake Capacity: Extramitochondrial free Ca^2+ was monitored in the presence of isolated mitochondria or digitonin-permeabilized cells, using an indicator of extramitochondrial free Ca^2+ (Calcium green-5N, Invitrogen). […] Fluorescence was continuously monitored at an excitation/emission at 488/532 nm respectively. […] Ca^2+ uptake was monitored by addition of 50 μM CaCl2 to the assay medium using a Hamilton syringe."}}, "data": [{"molecule": "B1", "values": [{"measurement": "PAR polymer mobility shift", "setting": "[1]", "result": "retards the mobility shift of PAR polymer"}, {"measurement": "NMDA induced loss of Δψm", "setting": "[2]", "result": "prevents NMDA induced loss of Δψm"}, {"measurement": "comet head diameter and tail length", "setting": "[3]", "result": "dramatically prevents the reduction in head diameter and increase in tail length"}, {"measurement": "mitochondrial calcium uptake", "setting": "[4]; Calcium green-5N", "result": "does not interfere with mitochondrial calcium uptake"}, {"measurement": "NMDA-induced calcium influx", "setting": "[4]; fluo-5F, NMDA 500 μM 5 min", "result": "does not interfere with NMDA-induced intercellular calcium influx"}]}]}
